In US20130196933A1:

Assays:
Cdk1 protein (human) = Cdk1 protein (human) (UniProt P06493); assay: cell-based or functional assay
[1] = molecular target: T7-FoxM1B WT protein (CMV T7-FoxM1B; CMV WT FoxM1B 1-748) (human) (UniProt Q08050); assay: cell-based or functional assay

Sequence of Cdk1 protein (human) (P06493 whole entry): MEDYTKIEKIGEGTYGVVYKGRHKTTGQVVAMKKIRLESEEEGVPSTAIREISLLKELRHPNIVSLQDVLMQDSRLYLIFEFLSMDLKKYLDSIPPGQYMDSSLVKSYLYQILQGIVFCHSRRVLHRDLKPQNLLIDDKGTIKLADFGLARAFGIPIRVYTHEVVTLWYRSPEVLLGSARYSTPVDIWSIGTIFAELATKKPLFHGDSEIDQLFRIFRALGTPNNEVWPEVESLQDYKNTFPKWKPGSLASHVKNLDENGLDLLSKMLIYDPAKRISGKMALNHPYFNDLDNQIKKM

Substance	FoxM1B transcriptional activity (6×FoxM1B TATA-luciferase reporter, U2OS cells) (Cdk1 protein (human)) [% reduction]	FoxM1B transcriptional activity (6×FoxM1B TATA-luciferase reporter, U2OS cells) (% stimulation) [1]
T7-FoxM1B L641A mutant protein (from UniProt Q08050 1-763)	80	
CBP protein (CREB Binding Protein, CMV-CBP) (enzyme)		50
